Laboratory results published in article PMC3413365 (The Journal of Cell Biology, 2012).

B1: BiP^R470K (natural protein)
chain: not shown
B2: BiP^R492K (natural protein)
chain: not shown
B3: Lucifer yellow–labeled BiP substrate peptide (NH2-HTFPAVLGSC-COOH) (peptide)
peptide: H-HTFPAVLGSC-OH
modifications: also: Lucifer yellow iodoacetamide label, residue not given here

What was measured:
Experiment in all cases: fluorescence polarisation
[1] = molecular target: B3
[2] = molecular target: T1, H6-tagged hamster BiP, wild type (hamster, UniProt G3I8R9 19-654)
BiP^R470E [3] = molecular target: T2, BiP^R470E (hamster, UniProt G3I8R9 19-654, R470E)
Lidless BiP (Δ554-654) = Lidless BiP (Δ554-654) (hamster, UniProt G3I8R9 19-553)
BiP^Δ(554–654);R470E = BiP^Δ(554–654);R470E (hamster, UniProt G3I8R9 19-553, R470E)
[4] = molecular target: T1, H6-tagged hamster BiP, wild type; remark: listed apart in the source
BiP^R470E [5] = molecular target: T2, BiP^R470E; remark: listed apart in the source

T1 sequence (G3I8R9 19-654): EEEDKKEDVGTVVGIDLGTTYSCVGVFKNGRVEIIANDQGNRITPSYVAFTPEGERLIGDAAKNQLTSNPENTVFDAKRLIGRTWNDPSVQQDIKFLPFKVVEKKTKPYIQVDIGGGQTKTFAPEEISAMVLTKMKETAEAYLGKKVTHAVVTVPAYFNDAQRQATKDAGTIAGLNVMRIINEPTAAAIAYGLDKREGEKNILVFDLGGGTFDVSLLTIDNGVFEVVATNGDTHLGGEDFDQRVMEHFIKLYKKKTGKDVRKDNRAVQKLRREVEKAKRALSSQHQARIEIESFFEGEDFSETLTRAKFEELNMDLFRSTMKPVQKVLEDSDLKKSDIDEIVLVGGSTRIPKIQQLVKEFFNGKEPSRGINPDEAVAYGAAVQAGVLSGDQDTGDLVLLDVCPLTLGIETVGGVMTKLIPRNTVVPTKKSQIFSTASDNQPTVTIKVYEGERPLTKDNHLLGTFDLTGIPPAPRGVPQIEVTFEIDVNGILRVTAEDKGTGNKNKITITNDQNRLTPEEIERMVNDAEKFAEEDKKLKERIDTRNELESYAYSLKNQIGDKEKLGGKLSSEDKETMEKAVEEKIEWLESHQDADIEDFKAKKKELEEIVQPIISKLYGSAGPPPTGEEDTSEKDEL
T2 sequence (G3I8R9 19-654 R470E): as the sequence (G3I8R9 19-654) above, with R452E counted along it
Chain of Lidless BiP (Δ554-654) (G3I8R9 19-553, stated change not applied): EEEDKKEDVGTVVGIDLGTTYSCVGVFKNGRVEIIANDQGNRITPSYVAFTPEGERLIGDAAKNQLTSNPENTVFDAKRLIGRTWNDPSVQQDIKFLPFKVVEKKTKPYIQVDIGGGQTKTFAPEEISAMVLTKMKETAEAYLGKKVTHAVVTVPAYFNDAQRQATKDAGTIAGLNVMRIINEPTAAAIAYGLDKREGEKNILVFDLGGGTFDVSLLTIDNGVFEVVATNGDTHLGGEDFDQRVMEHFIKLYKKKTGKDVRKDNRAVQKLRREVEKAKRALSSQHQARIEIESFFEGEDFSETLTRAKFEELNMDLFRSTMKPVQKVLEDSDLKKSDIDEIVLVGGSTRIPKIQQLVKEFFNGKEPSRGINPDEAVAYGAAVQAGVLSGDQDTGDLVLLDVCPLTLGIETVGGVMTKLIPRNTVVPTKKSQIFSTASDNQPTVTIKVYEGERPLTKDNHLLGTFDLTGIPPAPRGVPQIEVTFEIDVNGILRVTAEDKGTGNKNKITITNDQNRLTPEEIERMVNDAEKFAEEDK
Chain of BiP^Δ(554–654);R470E (G3I8R9 19-553 R470E): as the sequence (G3I8R9 19-553, stated change not applied) above, with R452E counted along it

fold change of the peptide off-rate against wild type [1] [fold]	koff [2] [s⁻¹]	koff (BiP^R470E [3]) [s⁻¹]	koff (Lidless BiP (Δ554-654)) [s⁻¹]	koff (BiP^Δ(554–654);R470E) [s⁻¹]	Kd [4] [µM]	Kd (BiP^R470E [5]) [µM]	Binder
3							B1
3							B2
	0.0002	0.0074	0.0017	0.00328	13	9	B3
